According to the supplement of paper PMC10724198:
± gives the standard deviation of the averaged measurements.

System: Saccharomyces cerevisiae
Experiment: protein stability index of tFT-peptide fusion (C-terminal peptide) (PSI (0-1 scale)); higher = more stable (slower turnover)
Settings: genetic background: das1 deletion; temperature: 30 C
Protocol: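 MPS profiling in S. cerevisiae of the tFT-X12 degron library: putative degron peptides plus stable controls, 12 aa, fused to the C-terminus of a sfGFP-mCherry timer. Cells are FACS-sorted into 8 mCherry/sfGFP bins and deep-sequenced. PSI runs from 0 (unstable) to 1 (stable). Backgrounds are wild type, das1Δ and doa10Δ at 30 °C, and wild type, das1Δ, cdc34-1 and cdc53-1 at 37 °C; 2-3 technical replicates each.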
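Note: PSI is a weighted mean of sequencing reads over stability bins, variants kept only with over 10 reads, mCherry proximal and sfGFP distal, peptide attached via GGGS linker.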

Sequence	protein stability index
LVACLGYAVYCL	0.402 ± 0.024
LVCFFLFSLFYL	0.335 ± 0.028
LVFCFRSLFLCS	0.542 ± 0.012
LVFRIRNANRLV	0.6418 ± 0.0024
LVFSVIPVLFVL	0.355 ± 0.015
LVGTRTIFCFLH	0.57 ± 0.018
LVGWSWAACWLA	0.58 ± 0.024
LVILRCAFPVYG	0.339 ± 0.03
LVLFVCFSLFMR	0.189 ± 0.019
LVLPAFLLLLYP	0.307 ± 0.034
LVLVLAVFGCHD	0.305 ± 0.03
LVNSPSISSLWL	0.688 ± 0.015
LVSLLYFIVSLF	0.473 ± 0.0089
LVTRVFVYFSIG	0.403 ± 0.034
LVVEALFYVLVS	0.126 ± 0.025
LVVFFPVLPIFG	0.394 ± 0.027
LVVRLFVWDVVW	0.269 ± 0.043
LWAVGWIIYFIV	0.211 ± 0.028
LWLISTYQLIGI	0.433 ± 0.011
MALAVRVVWCGA	0.204 ± 0.034
MCFFVFVLFLFC	0.281 ± 0.029
MLVWCLFWVACV	0.22 ± 0.028
MRMEGPLALSVR	0.395 ± 0.028
MRVCLCLMLIVN	0.214 ± 0.018
NARNPKKNRDQI	0.627 ± 0.026
NFFYLFLSFGFG	0.48 ± 0.025

Sequence	protein stability index
NGSCRVVMYIKG	0.592 ± 0.025
NKEEHQQKQRIH	0.663 ± 0.02
NKTTKNKKRKLS	0.697 ± 0.027
NKYNQFKWHINH	0.624 ± 0.026
NRLHYSPLYTIY	0.653 ± 0.0076
NSFASFVVVFVI	0.264 ± 0.034
NTDRRNICKISS	0.631 ± 0.02
NTREGFIILARA	0.369 ± 0.03
PACFPPPSPFAP	0.712 ± 0.015
PFDTPSHPNPLF	0.69 ± 0.026
PFGYYLFVPVCY	0.265 ± 0.029
PFLPFPPPLPAY	0.394 ± 0.026
PFYAYHFSLSVY	0.103 ± 0.028
PIFFFGRLLFFL	0.467 ± 0.0098
PLCCFFLLVCSH	0.193 ± 0.019
PLFPPTDSPSPN	0.668 ± 0.025
PLFVLTILLFLC	0.258 ± 0.051
PLGGLVILLLSS	0.349 ± 0.028
PLLALTSWLFFV	0.586 ± 0.012
PLPHTPAPPPFP	0.6492 ± 0.0043
PLSRLLPLYFLL	0.548 ± 0.017
PPHPLHIPRRLA	0.691 ± 0.02
PPLSRLAVFIVV	0.359 ± 0.036
PPRPSPPPHPLP	0.6737 ± 0.003
PPVRCVRLPLSS	0.649 ± 0.029
PRFRALLLIPVR	0.178 ± 0.046

Sequence	protein stability index
PRGFVRVDLLIF	0.273 ± 0.027
PRGKGSSGELCV	0.662 ± 0.025
PRPISRRTLILS	0.545 ± 0.026
PRVPILVVFCSF	0.286 ± 0.041
PSFVEVAFAVCC	0.347 ± 0.045
PTKRLFNNNKKI	0.649 ± 0.03
PWAQCVLLWVVV	0.397 ± 0.032
PWIASCRISFLL	0.6 ± 0.0099
QARVFWIIIGTA	0.241 ± 0.029
QFLSLSLPFALF	0.64 ± 0.029
QHIDTLAKTHIT	0.632 ± 0.008
QTGRVRGFVVSG	0.632 ± 0.032
RALCPVPLLASS	0.435 ± 0.026
RCFLPVFCFVVF	0.242 ± 0.037
RDWCYFIRVCSV	0.479 ± 0.026
RFACHDFVVLLC	0.453 ± 0.017
RFFLFVFFCFGF	0.383 ± 0.034
RFLCFDSVLTLC	0.56 ± 0.028
RFQKTRIFRCLC	0.57 ± 0.022
RFTCCISLSFLM	0.467 ± 0.011
RFTFSVVFCLSF	0.432 ± 0.011
RGDWPVFIQVKA	0.262 ± 0.035
RGGGGGTWVKMG	0.653 ± 0.029
RHCCIVPLCRVR	0.324 ± 0.028
RHSFSRVKLIQF	0.65 ± 0.032
RILKEFKRIAVL	0.479 ± 0.024

Same assay, conditions: genetic background: das1 deletion; temperature: 37 C

Sequence	protein stability index
LVACLGYAVYCL	0.573 ± 0.0087
LVCFFLFSLFYL	0.5331 ± 0.0039
LVFCFRSLFLCS	0.6784 ± 0.0048
LVFRIRNANRLV	0.728 ± 0.024
LVFSVIPVLFVL	0.528 ± 0.017
LVGTRTIFCFLH	0.741 ± 0.027
LVGWSWAACWLA	0.712 ± 0.019
LVILRCAFPVYG	0.538 ± 0.009
LVLFVCFSLFMR	0.291 ± 0.012
LVLPAFLLLLYP	0.4212 ± 0.0012
LVLVLAVFGCHD	0.563 ± 0.02
LVNSPSISSLWL	0.746 ± 0.0087
LVSLLYFIVSLF	0.566 ± 0.031
LVTRVFVYFSIG	0.554 ± 0.036
LVVEALFYVLVS	0.181 ± 0.0096
LVVFFPVLPIFG	0.566 ± 0.016
LVVRLFVWDVVW	0.473 ± 0.0097
LWAVGWIIYFIV	0.362 ± 0.0042
LWLISTYQLIGI	0.5727 ± 0.0033
MALAVRVVWCGA	0.328 ± 0.0034
MCFFVFVLFLFC	0.406 ± 0.013
MLVWCLFWVACV	0.355 ± 0.01
MRMEGPLALSVR	0.558 ± 0.0087
MRVCLCLMLIVN	0.372 ± 0.0069
NARNPKKNRDQI	0.705 ± 0.032
NFFYLFLSFGFG	0.588 ± 0.0086

Sequence	protein stability index
NGSCRVVMYIKG	0.717 ± 0.014
NKEEHQQKQRIH	0.719 ± 0.031
NKTTKNKKRKLS	0.656 ± 0.0059
NKYNQFKWHINH	0.742 ± 0.019
NRLHYSPLYTIY	0.753 ± 0.0065
NSFASFVVVFVI	0.512 ± 0.015
NTDRRNICKISS	0.733 ± 0.0086
NTREGFIILARA	0.573 ± 0.022
PACFPPPSPFAP	0.7326 ± 0.0022
PFDTPSHPNPLF	0.777 ± 0.024
PFGYYLFVPVCY	0.3985 ± 0.00045
PFLPFPPPLPAY	0.5646 ± 0.0038
PFYAYHFSLSVY	0.227 ± 0.015
PIFFFGRLLFFL	0.5856 ± 0.0046
PLCCFFLLVCSH	0.2814 ± 0.002
PLFPPTDSPSPN	0.724 ± 0.018
PLFVLTILLFLC	0.367 ± 0.017
PLGGLVILLLSS	0.548 ± 0.014
PLLALTSWLFFV	0.689 ± 0.022
PLPHTPAPPPFP	0.721 ± 0.036
PLSRLLPLYFLL	0.66444 ± 0.00057
PPHPLHIPRRLA	0.743 ± 0.017
PPLSRLAVFIVV	0.524 ± 0.008
PPRPSPPPHPLP	0.727 ± 0.011
PPVRCVRLPLSS	0.717 ± 0.01
PRFRALLLIPVR	0.281 ± 0.022

Sequence	protein stability index
PRGFVRVDLLIF	0.442 ± 0.017
PRGKGSSGELCV	0.707 ± 0.03
PRPISRRTLILS	0.721 ± 0.0088
PRVPILVVFCSF	0.532 ± 0.016
PSFVEVAFAVCC	0.5575 ± 0.0034
PTKRLFNNNKKI	0.731 ± 0.013
PWAQCVLLWVVV	0.5401 ± 0.0014
PWIASCRISFLL	0.7393 ± 0.0037
QARVFWIIIGTA	0.482 ± 0.011
QFLSLSLPFALF	0.748 ± 0.054
QHIDTLAKTHIT	0.7219 ± 0.005
QTGRVRGFVVSG	0.723 ± 0.02
RALCPVPLLASS	0.5981 ± 0.00094
RCFLPVFCFVVF	0.413 ± 0.006
RDWCYFIRVCSV	0.6139 ± 0.006
RFACHDFVVLLC	0.626 ± 0.026
RFFLFVFFCFGF	0.4787 ± 0.0021
RFLCFDSVLTLC	0.6748 ± 0.00086
RFQKTRIFRCLC	0.6796 ± 0.0058
RFTCCISLSFLM	0.472 ± 0.014
RFTFSVVFCLSF	0.504 ± 0.023
RGDWPVFIQVKA	0.426 ± 0.022
RGGGGGTWVKMG	0.758 ± 0.012
RHCCIVPLCRVR	0.555 ± 0.028
RHSFSRVKLIQF	0.732 ± 0.0089
RILKEFKRIAVL	0.7193 ± 0.006
